Experimental findings from doi:10.1101/557751 are described below.

The Kd is the constant that tells how readily two partners part at equilibrium. Higher therefore signals a looser complex.

What all share (experiment): EMSA
(In general: A gel shift assay detects complexes by their altered migration in electrophoresis.)

The target of data set [1] is T1, CsiR (Pseudomonas putida (KT2440?)) (UniProt Q88IU1).
T1 sequence: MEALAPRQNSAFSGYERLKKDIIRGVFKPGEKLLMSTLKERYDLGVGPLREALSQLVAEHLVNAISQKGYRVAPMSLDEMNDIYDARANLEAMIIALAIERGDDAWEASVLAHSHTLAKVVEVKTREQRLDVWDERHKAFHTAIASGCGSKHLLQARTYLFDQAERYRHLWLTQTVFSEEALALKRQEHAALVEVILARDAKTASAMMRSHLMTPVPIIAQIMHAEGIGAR

Data set [2] has as its target T2, GcdR (Pseudomonas putida (KT2440?)) (UniProt Q88RH3).
T2 sequence: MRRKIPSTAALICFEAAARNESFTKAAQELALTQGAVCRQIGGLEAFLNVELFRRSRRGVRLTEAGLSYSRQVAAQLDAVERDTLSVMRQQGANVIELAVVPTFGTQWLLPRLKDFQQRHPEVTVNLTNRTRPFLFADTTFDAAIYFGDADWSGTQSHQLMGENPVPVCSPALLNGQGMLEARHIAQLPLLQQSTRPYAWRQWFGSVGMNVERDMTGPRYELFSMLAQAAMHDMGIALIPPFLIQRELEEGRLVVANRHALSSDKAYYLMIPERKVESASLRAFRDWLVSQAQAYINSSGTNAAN

Data set [3] deals with CsiR (Pseudomonas putida (KT2440?)).
For data set [4], the system named is GcdR (Pseudomonas putida (KT2440?)).

On to “AGTTCGATCTGCGTAAAGGCGTTCATGGCAGTGTCCTGGCTAAAAAAGTAGATGGCGCCGTCCGGTCATGACCTGGATCAGTGCGGGCGAGGTAAAAATATCGCCACTAACTGAAAATGTCTACATTTTTATTTTTCAACGACACTACTCGTGTTTGTCCATTGTTTTTCGTCAGCAGAGGGTTTCGGTATGATCGGCAAAACGTTTTGAGGAACAGGATCTTGGAAGCGCTCGCCCCCCGACAAAACTCAGCATTCAGCGGG (double strand) [csiR-csiD intergenic probe]”, for which the dissociation constant (Kd) in data set [1] worked out at 30 nM.
As for “CGGGTCGATCCAGTTGAAACTTGCTTTACCGACCATGAGCGAATCCTCGAAATAGGGGTCAGTTTCTTGTGCCTTTGAGCCTAGGCCTGATCGGCTGCGGCGACAAACGAGGATTGCGCACCGATTAGTGATATTTTGTCACTCCGTAAATCGGCAAAACGCCTTATTGACAGCCTTACAAGTGAGGTTGACGTACATGC (double strand) [gcdR intergenic probe]”, the Kd in data set [2] came out at 62.5 nM. That is a double-digit nanomolar value.
In turn, csiR-csiD intergenic probe showed a Kd in data set [3] of 30 nM. This lies in the double-digit nanomolar range.
The substance gcdR intergenic probe showed a Kd in data set [4] of 62.5 nM. In other words, the double-digit nanomolar range.
